In the nanobody polyreactivity screen of Harvey et al. (2022):

Experiment: yeast display, Sf9 membrane polyspecificity reagent, FACS + sequencing; frameworks hold sequencing errors
Method in brief: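 A nanobody's polyreactivity label depends on the gate it was sorted from. Yeast display cells were stained with 10% biotinylated, detergent-solubilized Sf9 membrane reagent for 1 hour at 4 °C, enriched on streptavidin microbeads and sorted by FACS. The low and high (top ~1%) gates were set on anti-HA fluorescence for expression and streptavidin fluorescence for reagent binding.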

Sequence	polyreactivity (PSR sort gate)
QDQLVESGGGLVQAGGSLRLSCAASGFTFYQYAMGLYIQAPGKERELVASITWNGGSTFYADSVKGRFTISRDNAKNTVYFQMNSLKPEDTAVYYCNVAYVYGSFRRRPMGYWGQGTQVTVSS	high polyreactivity
QVQVVESGGGILQAGGSLRLSCAASGSIFYTNAMGWYRQAPGKERELVAAINLRDTGTYYADSVKGRFTISRDNAKNTVYLQMNSLNPDDTAVYYCAVDVYSRRTRIRYDSWGHGTQVTVSS	low polyreactivity
QVQLVESGGGLVQAGGSLRLSCAASGSTFYKNAMGWYRQAPGKERELVARISGRGGSTYYADSVKGRFTISRDNAKNTVYLQMNSLKPEDTAVYYCNALYRVFVGTYDYWGQGTQVTVSS	high polyreactivity
QVQHVESGGGLVQAGGSLRLSCAASGRIFVNYAMGWSRQAPGKERELVAAITYIDSGTYYADSVKGRFTISRDNAKNTVYFQRNSLKPEDTAVYYCAVRLNSDSNRKTQKYGYWGQGTQVTVSS	low polyreactivity
QVQLVESGGGLVQAGGSLRLSCAASGYNFYVNGMGWYRQAAGTERELVARITLSGTSTYYADSVKGRITISRDYAKNTVYLQMNSLKPDDTAVYYCAAPYFTYGLDVDVYWGQGTQVTVSS	low polyreactivity
QVHLVESGGGLVQAGGSRRLSCAASGRISTLNALGWYRQAPGKVWEFVAAISWRGGSTYYADSVKGRFTISRDNAKNTVYVQMNSLKPEDTAVYYCAARPYTLAFYRFGYWGQGTKVTVSS	high polyreactivity
QVQLVESGGGLVQAGGSLRLSCAASGIIFGGYAMGWYGQAPGKERELVASITWGGGSTYYADSVKGRFTISRDNAKNTVYLQMNSLKPEDTAVYYCNKRGYPGSDWGQGTQVTVSS	low polyreactivity
QVQLVESGGGLVQAGGSLRLSCAASGNIFVGNAMGWYRQAPGKERELVAAIRRSGGTTYYADSVKGRFTISRDIAKNTVYIQMNSLKPEDTAVYYSAASRPYQGDYWGQGTQVTVSS	low polyreactivity
QVQLVESGGGLVQAGGSLRLSCAASGSTFGYYGMGRYRQAPGKERELVASIDSRGDSTYADSVKGRFTISRDNAKNTVYLQMNSLKPEDTSVYYCADDSWYTWFDSWGQGTQVTVSS	low polyreactivity
QVQLVESGGGLVQAGGSLRLSCAASGSIFFYYAMGWYRQAPGKERELVAAINSDGSTNYADSVKGRFTISRDNAKNTVYLQMNSLKPEDTAVYYCNADTPYYQGEYNYWGQGTQVTVSS	low polyreactivity
QDQHVESGGGLVHAGGSLRLSCAASGRIFKVYAMGWYRQPPGKERQLVASIRWNTGSTYYADSVKGRFTISRDNAKNTVYLQMNSLKPEDTAVYYCNSRGYYQGRYGYWGQGTQVTVSS	high polyreactivity
QVQLVESGGGLVQAGGSLRLSCAASGNTLGYNAMGWYRKAPGKERELVATIRGSGGITYYADSVKGRFTISRDNAKNTVYLQMNSLKPEDTAVDYCAKVYKYRVKGDHWGQGTQVTVSS	low polyreactivity
QVQLVESGGGLVQAGGSLRLSCAASGIIFNRYAMGWYRQAPGKERELVAAISASGDSTYYADSVKGRFTISRDNAKYTVYLQMNSLKPEDTAVDYCAADYGYRYDYWGHGTQVTVSS	low polyreactivity
QVQLVESGGGLVQAGGSLRLSCAASGHIFDHYAMGWYRQAPGKERELVAAISTSGTSTYYADSVKGRFTISRDNAKNTVYLQMNSLKPEDTAVYYCNAGGGHVGDVRYPYRYWRYNYWGQGTQVTVSS	low polyreactivity
QVQLVESGGGLVQAGGSLRLSCAASGSIYFLYAMGWYRQAPGKERELVAAISWSVDRTYYADSVKGRFTISRDNAKNTVYLQMNSLKPEDTAVYYCAAVHWWSSSLRMYYWGQGTQVTVSS	low polyreactivity
QVQLVESGGGLVQAGGSLRLSCAASGRIFQYYAMGWYRQAPGKERELVAAITRSGGSTYYADSVNGRFTISRDNAKNTVYLQMNSLKPEDTAVYYCARTYWITNSKFRDYLGAYGGEYWGQGTQVTVSS	high polyreactivity
QVQLVESGGGLVQAGGSLRLSCAASGFIFKGNAMGWYRQAPGKERELVAAITNRGGGTYYADSVKGRFTISRDNAKNTVYLQMNSLKPEDTAVYYCAKAYTRPFHPYDYWGQGTQVTVSS	high polyreactivity
QVQLVESGGGLVQAGGSLRLICAASGGIFVYYAMGWYRQAPGKERELVAAISSGGTTNYADSVKGRFTISRDNAKNTVYLQMNSLKPEDTAVYYCAIYVSWPLYYYWGQCTQVTVSS	low polyreactivity
QVQLVESGGGLVQAGGSLRLSCAASGNIFSDNAMGWYRQAPGKERELVATITSSGVSTYYADSVKGRFTISRDNAKNTVYLQMNSLKPEDTAVYYGAVQGFRYHSREYDYWGQGTQVTVSS	low polyreactivity
QVQLIESGGGLVQAGGSLRLSCAASGSTLGLYDMGWYRQAPGKERELVAAISTGSGSTYYADSVKGRFTISRDNAKYTVYLLMISLKPEDTAVYYCNTDAWYSPIWFWVDSWGQGTQVTVSS	low polyreactivity
QVQLVDSGGGFVQAGGSLRLSCAASGSILAQKAMGWYRQAPGKERELVAAISWSGGRTYYADSVKGRFTISLDNAKNYVYLQMNCLKPEDTAVYYCNKVRRASTVHPDNYWGQGTQVTVSS	high polyreactivity
QVQLVESGGGLVQAGGSLRLSCAASGSTFGYNGMGWYRQGPGKERELVAAISGGARTYADSVKGRFTISRDNAKNTVYLQMNSLKPEDTAVYYCAADSPVSVTADDGYWGQGTQLTVSS	low polyreactivity

Sequence	polyreactivity (PSR sort gate)
QVQLVESGGGLVQAGGSLRLSCAASGSTFAYYAMVWYRQAPGKERELVAAISTIAGRTYYADSVKGRFTISRDNAKNTVYLQMNSLKPEDTAVYYCAVQFLYVVTLYSDYDYWGQGTQVTVSS	high polyreactivity
QVQLVESGGGLVQAGGSLRLSCAASGNTFFRYAMGWYRQAPGKERELVAAISKSGGSTYYADSVKGRFTISRDNAKNTVYLQMNSLKPEDTAVYYCAAYSPYGRYDYWGQGTQVTVSS	high polyreactivity
QVQLVESGGGLVQAGGSLRLSCAASGSTFTPNAMGWYRQAPGKERELVAAINWSDSSTYYADSVKGRFTISRDNAKNTVYLQMNSLKPEETAVYYCAAAAQYGQLQVPVYYWGQGTQVTVSS	low polyreactivity
QVQLVESGGGLVQAGGSLRLSCAASGRIFDSYTMGWYRQAPGKERELVAAISRGGGSTYYADSVKGRFTISRDNAKNTVYLQMNSLKPEDTAVYYCAASSYLNSRFKFDYWGQGTQVTVSS	low polyreactivity
QVQLVESGGGLVQAGGSLRLSCAASGFTFGTNAMGWYSQAPGKERELVAAISGRVGSTYYADSVKGRFTISRDNAKNTVYFLMNSLKPEDTAVYYCAADTWKTWSPYLYYTYDSWGQGTQVTVSS	low polyreactivity
QVQLVESGGGLVQAGGSLRFSCPASGSILTGYAMGWYRQAPGKERELVAAINFSGDNTYYADSVKGRFTISRDNAKNTVFLPMNSLKPEDTAVYYCNADGRYAYVWYDYCGQGTQVTVSS	low polyreactivity
QGQLEESGGGLVQAGGSLRLSCAASGSTFTYYAMGWYRQATGKERELVAAISWSGTRTYYADSVKGRFTISRDNAKNTDYLQTNSLKPEDTAVYYCAADWRRSGVYTMGYWGQGTQVTVSS	high polyreactivity
QVQLVESGGGLVQAGGSLRLSCAASGSIFPDYAMGWYRQAPGKERELVAAITWRDDSSYYADSVKGRFTISRDNAKNTVYLQMNSLKPEDTAVYYCNASALDPLYAKDDYWGQGTQVTVSS	low polyreactivity
QVQLVESRGGIVQAGGSLRLSSAASGSTFAYNDLGWYRQAPGKERQLVADMRSGGNTNYADSVKGRFTISRDNAKNTVYLQMNSLKPEDTAVYYCATDGYRIDVYHPDYRYDYWGLGTQVTVSS	low polyreactivity
QVQLVESGGGLVQAGGSLRLCCAASGSIFKYNAMGWYRQAPGKERELVAAITWSGGSTYYADSVKGRFTISRDNAKNTVYLQMNSLKPEDTAVYYCAAVYYYASRTSKQPYYHWGQGTQVSVSS	high polyreactivity
QVQLVESGVGLVQAGGSLRLSCAASGIIFLENAMGWYRQAPGKERELVAGISSGGNTNYADSVKGRFTISRDNAKNTDYLQMNSLKPEDTAVYYCNTDWYLPRYVLLGYFSGTEDSWGQGTQVTVSS	low polyreactivity
QVQLLESGGGLVQAGGSLRLSCAASGLIFAYAMGWYRQAPGKERELVAVISWSGGSTYYADSVKGRFTISRDNAKNTVYLQKNSLKPEDTAVYYCAADYFGNWQLAGGYLGQGTQVTVSS	low polyreactivity
QVQLVESGGGLVQAGGSLRLSCAAYGRTLYYNTMGWYRQAPGKERELVASIRWDGGRTYYADSVKGRFTISRDNAKNTVYLQLNSLKPEDTAVYYCAKDGGYYYGTYAYDGCFDYWGQGTQVTVSS	low polyreactivity
QVQLVESGGGLVQAGGSLRLSCAASGGTFWKNAMGWYRQAPGKERELVAAIRSSSGNTYYADSVKGRFTISRDNAKNTVYLQMNSLKPEDTAVYSCARRYYDYGYDYYWGQGTQVTVSS	high polyreactivity
QVQLVESGGGLVQAGGSLRLSCAASGSILWHNAMGCYRQAPGKEREFVAAISARGTRTYYADSVKGRFTISRDNAKITVYLQMNSLKPEDTAVDYCAARYWDDRARAEDYWGQGTQVTVSS	high polyreactivity
QVQLVESGGGLVQAGGSHRLSCAASGRIFQRNTMGWYRQAPGKERELVARINYSGGSTYYADSVKGRFTISRDNAKNTVYLQMNSLKPEDTAVYYCAARVWTWSIYYRAGLSSYDYWGQGTQVTVSS	low polyreactivity
QVQLVESGGGLVQAGGSLRLSCAASGIIFKYYAMGWYRQAPGKERELVAAISSRSGRTYYADSVKGRFTISRDNAKNTVYLQMNSLKPEDTAVYYCNVQVQRSYPYGYWGQGTQVTVSS	high polyreactivity
QVQLVESGGGLVHAGGSLRLSCAASGITFKWNDMGWYRQAPGKEREFVAAITGSTGSTFYADSVKGRFTISRDNAKNTVYLQMNSLKPEDTAVYYCAAGPWFYYWGQGTQVTVSS	low polyreactivity
QFQLVESGGGLVQAAGSLRLSCAASGSTFVSNAMGWYRQAPGKDRELVAAITRSGGSTRDADSVKGRLTISRDNAKNTGYLQMNSLKPEDTAVYYCAAPHKYYGLRYYYWGQGTQVTVSS	high polyreactivity
QVQLVESGGGLVQAGGSLRLSCAASGSIFSQYAMGSYRQAPGKERELVAAITSGGRTYYADSVKGRFTISRDNAKNTVYLQMNSLKPEDTAVYYCAASRRGGGLDYWGQGTKVTVSS	high polyreactivity
QVQLVESGGGLVQAGGSLRLSCAASGRTFHWYTMGWYRLAPGKERELVAAISWSGTTTYYADSVKGRFTISRDNAKNTVYVQMNSLKPEDTAVYYCAFPTYNHNPVSAMTYYYWGQGTQVTVSS	low polyreactivity
